The values below come from patent US20100266614A1 (AstraZeneca / MedImmune, published 2010).

Where a chain is given by its changes, count along the chain named.

To fix the notation:
B1: clone 4 (PFFY) (antibody, V domains shown)
VH: QVTLRESGPALVKPTQTLTLTCTFSGFSLSTPGMSVGWIRQPPGKALEWLADIWWDDKKDYNPSLKSRLTISKDTSKNQVVLKVTNMDPADTATYYCARSMITNFYFDVWGQGTTVTVSS
VL: DIQMTQSPSTLSASVGDRVTITCSASSSVGYMHWYQQKPGKAPKLLIYDTFKLASGVPSRFSGSGSGTEFTLTISSLQPDDFATYYCFQGSYYPFTFGGGTKVEIK
notes: also called 4 (n = 3)
B2: clone 17 (PWSW) (antibody, V domains shown)
VH: B1 VH with F105W
VL: B1 VL with F51S, Y92W
B3: clone 6 (PFYF) (antibody, V domains shown)
VH: B1 VH
VL: B1 VL with F51Y, Y92F
B4: 16 (antibody, V domains shown)
VH: B1 VH with P32A, F105W
VL: B1 VL with F51S, Y92G
notes: also called AWSG
B5: IX-493 (SWSG), basic or reference antibody (Fab, V domains shown)
VH: B1 VH with P32S, F105W
VL: B1 VL with F51S, Y92G
notes: also called basic antibody
B6: clone 3 (PFFF) (Fab, V domains shown)
VH: B1 VH
VL: B1 VL with Y92F
notes: also called 3 (n = 3)
B7: clone 23 (AFFY) (Fab, V domains shown)
VH: B1 VH with P32A
VL: B1 VL
B8: clone 2 (AFFG) (Fab, V domains shown)
VH: B1 VH with P32A
VL: B1 VL with Y92G
B9: clone 22 (AFFF) (Fab, V domains shown)
VH: B1 VH with P32A
VL: B1 VL with Y92F
notes: also called 4D2-7
B10: clone 1 (AFSF) (Fab, V domains shown)
VH: B1 VH with P32A
VL: B1 VL with F51S, Y92F
B11: clone 12 (PWFF) (antibody, V domains shown)
VH: B1 VH with F105W
VL: B1 VL with Y92F
notes: also called 12 (n = 2)
B12: clone 14 (SFFW) (antibody, V domains shown)
VH: B1 VH with P32S
VL: B1 VL with Y92W
B13: clone 13 (SFFF) (antibody, V domains shown)
VH: B1 VH with P32S
VL: B1 VL with Y92F
notes: also called 13 (n = 3)
B14: clone 5 (PFFW) (antibody, V domains shown)
VH: B1 VH
VL: B1 VL with Y92W
notes: also called 5 (n = 3)
B15: clone 16 (PFSG) (antibody, V domains shown)
VH: B1 VH
VL: B1 VL with F51S, Y92G
notes: also called 16 (n = 2)
B16: clone 10 (PFSF) (antibody, V domains shown)
VH: B1 VH
VL: B1 VL with F51S, Y92F
B17: clone 19 (SFSW) (antibody, V domains shown)
VH: B1 VH with P32S
VL: B1 VL with F51S, Y92W
B18: clone 7 (PFFG) (antibody, V domains shown)
VH: B1 VH
VL: B1 VL with Y92G
notes: also called 7 (n = 4)
B19: clone 15 (AFSG) (antibody, V domains shown)
VH: B1 VH with P32A
VL: B1 VL with F51S, Y92G
notes: also called 15 (n = 2)
B20: clone 18 (SFFG) (antibody, V domains shown)
VH: B1 VH with P32S
VL: B1 VL with Y92G
notes: also called 18 (n = 2)
B21: clone 21 (SWYF) (antibody, V domains shown)
VH: B1 VH with P32S, F105W
VL: B1 VL with F51Y, Y92F
B22: clone 11 (PWFW) (antibody, V domains shown)
VH: B1 VH with F105W
VL: B1 VL with Y92W
B23: clone 20 (SFSF) (antibody, V domains shown)
VH: B1 VH with P32S
VL: B1 VL with F51S, Y92F
B24: clone 9 (PFSW) (antibody, V domains shown)
VH: B1 VH
VL: B1 VL with F51S, Y92W
notes: also called 9 (n = 2)

In one test the target is T1, RSV F protein (C-terminal truncated F protein secreted from a recombinant baculovirus) (respiratory syncytial virus (RSV), UniProt P03420 26-524).
T1 construct: also called F antigen; RSV F antigen
T1 sequence (P03420 26-109, chain 1 of 2): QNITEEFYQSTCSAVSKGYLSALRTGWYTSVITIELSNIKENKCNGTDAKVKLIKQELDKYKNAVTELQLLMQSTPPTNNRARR
T1 sequence (P03420 137-524, chain 2 of 2): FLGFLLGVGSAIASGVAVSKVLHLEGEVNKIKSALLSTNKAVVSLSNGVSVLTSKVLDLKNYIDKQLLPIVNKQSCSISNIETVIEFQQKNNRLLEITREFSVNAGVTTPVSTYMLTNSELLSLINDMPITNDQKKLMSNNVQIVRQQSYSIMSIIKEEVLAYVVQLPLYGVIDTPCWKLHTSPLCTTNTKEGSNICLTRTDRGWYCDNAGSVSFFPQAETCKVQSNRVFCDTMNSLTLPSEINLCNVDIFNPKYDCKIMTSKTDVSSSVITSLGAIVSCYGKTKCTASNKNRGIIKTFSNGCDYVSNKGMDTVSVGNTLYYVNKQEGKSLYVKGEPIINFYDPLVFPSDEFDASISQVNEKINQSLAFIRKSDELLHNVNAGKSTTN
Briefly: ELISA titration of antibody on RSV F antigen, O.D. 560.
As to B1, the “EC50 (read off the curve)” value was approximately 0.01 µg/mL.
With B2, the “EC50 (read off the curve)” value was approximately 0.04 µg/mL.
As to B3, the “EC50 (read off the curve)” value is approximately 0.02 µg/mL.
Take B4: the “EC50 (read off the curve)” value is approximately 0.03 µg/mL.
For the molecule B5, the “EC50 (read off the curve)” value is approximately 0.2 µg/mL.

The next test addresses T1, RSV F protein (C-terminal truncated F …). Briefly: SPR (BIAcore), F protein immobilized by EDC/NHS, Fab injected; calculated from the rate constants.
Regarding B6, the Ka was 8.15e+10 M⁻¹.
B7: the Ka was 4.03e+11 M⁻¹.
In the case of B8, the Ka was 7.31e+10 M⁻¹.
As for B9, the Ka is 3.62e+11 M⁻¹.
For B10, the Ka is 6.98e+10 M⁻¹.

For another test the target is unchanged. Kind of test: SPR (BIAcore), F protein immobilized by EDC/NHS, Fab injected; kon and koff measured separately.
As to B6, the koff turned out to be 1.35e-06 s⁻¹ and the kon was determined as 110000 M⁻¹ s⁻¹.
Regarding B7, the koff worked out at 3.03e-07 s⁻¹ and the kon came to 122000 M⁻¹ s⁻¹.
As for B8, the koff was found to be 1.82e-06 s⁻¹ and the kon came out at 133000 M⁻¹ s⁻¹.
As for B9, the koff was determined as 3.7e-07 s⁻¹ and the kon was determined as 134000 M⁻¹ s⁻¹.
With B10, the koff came to 1.62e-06 s⁻¹ and the kon stood at 113000 M⁻¹ s⁻¹.

The target is the same in a further test. Briefly: SPR (BIAcore), from the kinetic constants of Table 4.
Take B6: the Kd is approximately 0.0123 nM.
As to B7, the Kd is approximately 0.0025 nM.
Take B8: the Kd was approximately 0.0137 nM.
B9: the Kd was approximately 0.0028 nM.
For the molecule B10, the Kd is approximately 0.0143 nM.

The target is the same in another test. Kind of test: ELISA titration of antibody on 500 ng RSV F antigen; qualitative score from titration curves.
As to B6, the “Ag Score” value was 4 arbitrary score 0-4.
B11: the “Ag Score” value turned out to be 2.5 arbitrary score 0-4.
For the molecule B12, the “Ag Score” value was 2.5 arbitrary score 0-4.
Consider B1, for which the “Ag Score” value came out at 3.5 arbitrary score 0-4.
On to B13, for which the “Ag Score” value came to 2.5 arbitrary score 0-4.
Consider B14, for which the “Ag Score” value is 3.5 arbitrary score 0-4.
On to B15, for which the “Ag Score” value is 2 arbitrary score 0-4.
For B16, the “Ag Score” value turned out to be 3 arbitrary score 0-4.
B2: the “Ag Score” value is 2 arbitrary score 0-4.
Still for that read-out and setting: then B17, with 2 arbitrary score 0-4; and B18, with 3 arbitrary score 0-4.
In the case of B8, the “Ag Score” value stood at 4 arbitrary score 0-4.
With B19, the “Ag Score” value worked out at 2.5 arbitrary score 0-4.
As for B3, the “Ag Score” value was 3.5 arbitrary score 0-4.
With B20, the “Ag Score” value was found to be 2 arbitrary score 0-4.
Still for that read-out and setting: next, B21: 2 arbitrary score 0-4; B22: 3 arbitrary score 0-4; B5: 0.1 arbitrary score 0-4.
Consider B23, for which the “Ag Score” value came to 2 arbitrary score 0-4.
The same measure, in the same setting: next, B10: 4 arbitrary score 0-4; B24: 3 arbitrary score 0-4.
